# Assay results reported in patent US20130058902A1, “DENDRITIC CELL SUBSETS FOR GENERATING INDUCED TOLEROGENIC DENDRITIC CELLS AND RELATED COMPOSITIONS AND METHODS” (Selecta Biosciences, Inc., priority 2011, published 2013).
# System: DCs in the spleen
# Assay: Expansion of spleen DCs in donor mice inoculated with FLT-3 ligand expressing melanoma cells
# Type: in vivo, C57BL/6 mice
# Conditions: spleen of syngeneic donor mice inoculated 10 days earlier with FLT-3 ligand expressing melanoma cells
# Text: For each treatment day syngeneic donor mice were inoculated 10 days earlier with Fms-like tyrosine kinase 3 (FLT-3) ligand expressing melanoma cells s.s. (performed on days−10, 4, 18 in donor C57BL/6 age-matched mice). Flt3 ligand is a growth factor for DCs and allows for greater total number of DCs to be present in the spleen. This increased the number of DCs more than 10-fold and allowed for more cells to be available for in vitro treatment and in vivo administration.
molecule,measurement,value
"Flt3 ligand: growth factor for DCs, delivered by FLT-3 ligand expressing melanoma cells inoculated into donor mice (protein, UniProt P49772 27-232, looked up) Fms-related tyrosine kinase 3 …: GTPDCYFSHSPISSNFKVKFRELTDHLLKDYPVTVAVNLQDEKHCKALWSLFLAQRWIEQLKTVAGSKMQTLLEDVNTEIHFVTSCTFQPLPECLRFVQTNISHLLKDTCTQLLALKPCIGKACQNFSRCLEVQCQPDSSTLLPPRSPIALEATELPEPRPRQLLLLLLLLLPLTLVLLAAAWGLRWQRARRRGELHPGVPLPSHP",increase of the number of DCs,more than 10 fold
